Series [1] concerns the target Fno (F420H2:NADP+ oxidoreductase) (Archaeoglobus fulgidus, UniProt O29370, I135A). Kind of series: tryptophan fluorescence titration, fit with Hill coefficient. It is filed as binding. From the text:
(§1) tryptophan fluorescence titration, fit with Hill coefficient on Fno (F420H2:NADP+ oxidoreductase)

The target in series [2] is Fno (F420H2:NADP+ oxidoreductase) (Archaeoglobus fulgidus, UniProt O29370, I135G). The description is as above. It is filed as binding.
From the text: as §1

Series [3] concerns the target Fno (F420H2:NADP+ oxidoreductase) (Archaeoglobus fulgidus, UniProt O29370, I135V). Described as above. It is filed as binding.
From the text: as §1

Substrate in series [4]: NC(=O)C1=CN([C@@H]2O[C@H](COP(=O)(O)OP(=O)(O)OC[C@H]3O[C@@H](n4cnc5c(N)ncnc54)[C@H](OP(=O)(O)O)[C@@H]3O)[C@@H](O)[C@H]2O)C=CC1
Kind of series: purified protein. The format is biochemical, Archaeoglobus fulgidus. As to conditions: 25 µM FO, 50 mM MES/NaOH pH 6.5, 22 °C, phase 1 of biphasic fit, negative cooperativity.

Substrate in series [5]: O=c1nc2n(C[C@H](O)[C@H](O)[C@H](O)CO)c3cc(O)ccc3cc-2c(=O)[nH]1
Kind of series: purified protein. It is filed as biochemical, Archaeoglobus fulgidus. As to conditions: 600 µM NADPH, 50 mM MES/NaOH pH 6.5, 22 °C.

Where a chain is given by its changes, count along the chain named. In names and notes the source's numbering stands. Like-named read-outs stand apart in the source and are kept apart here.

Fno (F420H2:NADP+ oxidoreductase) (Archaeoglobus fulgidus, UniProt O29370, I135G), sequence (O29370 whole entry I135G, one chain of several): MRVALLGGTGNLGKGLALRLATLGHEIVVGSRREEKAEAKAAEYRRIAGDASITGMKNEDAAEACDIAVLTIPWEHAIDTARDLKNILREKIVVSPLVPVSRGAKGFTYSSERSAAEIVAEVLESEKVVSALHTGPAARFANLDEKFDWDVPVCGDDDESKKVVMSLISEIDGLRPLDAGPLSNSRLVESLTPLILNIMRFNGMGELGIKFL
Fno (F420H2:NADP+ oxidoreductase) (Archaeoglobus fulgidus, UniProt O29370, I135A), sequence (O29370 whole entry I135A, one chain of several): as the sequence (O29370 whole entry I135G, one chain of several) above, with G135A counted along it

The term Kd denotes the concentration at which binding is half-saturated. As for `O=c1nc2n(C[C@H](O)[C@H](O)[C@H](O)CO)c3cc(O)ccc3cc-2c(=O)[nH]1` [FO], the dissociation constant Kd came to 5.6 ± 0.2 nM in series [1] (read-out: Kd^FO), 6.9 ± 0.3 nM in series [2] (read-out: Kd^FO) and 7.5 ± 0.9 nM in series [3] (read-out: Kd^FO).
Take `NC(=O)C1=CN([C@@H]2O[C@H](COP(=O)(O)OP(=O)(O)OC[C@H]3O[C@@H](n4cnc5c(N)ncnc54)[C@H](OP(=O)(O)O)[C@@H]3O)[C@@H](O)[C@H]2O)C=CC1` [NADPH]: the Kd was found to be 6.7 ± 0.7 nM in series [1] (read-out: Kd^NADPH), 1.5 ± 0.1 nM in series [2] (read-out: Kd^NADPH) and 7.4 ± 1.1 nM in series [3] (read-out: Kd^NADPH).

B1: Fno (F420H2:NADP+ oxidoreductase) (Archaeoglobus fulgidus DSM 4304; I135V) (protein)
chain: MRVALLGGTGNLGKGLALRLATLGHEIVVGSRREEKAEAKAAEYRRIAGDASITGMKNEDAAEACDIAVLTIPWEHAIDTARDLKNILREKIVVSPLVPVSRGAKGFTYSSERSAAEIVAEVLESEKVVSALHTVPAARFANLDEKFDWDVPVCGDDDESKKVVMSLISEIDGLRPLDAGPLSNSRLVESLTPLILNIMRFNGMGELGIKFL
By Km is commonly meant the concentration of substrate that gives half-maximal velocity. The term kcat denotes the maximal rate divided by the concentration of active sites. The term kcat/Km denotes the turnover number divided by the Michaelis constant. For B1, in “purified protein [4]”, the Km was determined as 0.7 ± 0.1 µM, the kcat turned out to be 1.5 ± 0.09 s⁻¹ and the kcat/Km turned out to be 2.1e+06 ± 340000 M⁻¹ s⁻¹. For the same molecule, in the series “purified protein [5]”, the Km was 3.7 ± 0.4 µM, the kcat was determined as 1.8 ± 0.1 s⁻¹ and the kcat/Km was determined as 490000 ± 55000 M⁻¹ s⁻¹.

B2: Fno (F420H2:NADP+ oxidoreductase) (Archaeoglobus fulgidus DSM 4304; I135G) (protein)
chain: B1 chain with V135G
For B2, in “purified protein [5]”, the Km came to 3.6 ± 0.4 µM, the kcat turned out to be 0.7 s⁻¹ and the kcat/Km is 200000 M⁻¹ s⁻¹.

B3: Fno (F420H2:NADP+ oxidoreductase) (Archaeoglobus fulgidus DSM 4304; I135A) (protein)
chain: B1 chain with V135A
For the molecule B3, in “purified protein [5]”, the Km amounted to 3.6 ± 0.5 µM, the kcat is 1.6 ± 0.1 s⁻¹ and the kcat/Km turned out to be 450000 ± 66000 M⁻¹ s⁻¹.

The record behind these values is publication PMC5614548, “Effects of isoleucine 135 side chain length on the cofactor donor-acceptor distance within F420H2:NADP^+ oxidoreductase: A kinetic analysis^” (Biochemistry and Biophysics Reports, 2016).
